Assay results: publication PMC4169731 (Peptides, 2014)
Several values for one entry are separate records, joined by “and”; a condition that tells them apart may be missing. Identical values can stand only once. Where a SMILES comes first, the peptide text is derived from it. The star is where a group is joined. 124I = [124I]*; 125I = [125I]*

Tests used:
Type in all cases: in vivo, mouse
[1] = test system: AA amyloid deposits; assay: Longitudinal SPECT/CT imaging of ^125I-p5 in AA mice
[2] = Dynamic PET/CT imaging of ^124I-p5, time activity curves, healthy; conditions: WT mice, ^124I-p5 IV
[3] = test system: amyloid-laden (AA) H2-L^d-HuIL-6 Tg BALB/c mice; assay: Dynamic PET/CT imaging of ^124I-p5, time activity curves, amyloid-laden
[4] = Dynamic PET/CT imaging of ^124I-p5 in mice; conditions: ^124I-p5 IV, dynamic PET
[5] = test system: AA amyloid deposits; assay: Tissue biodistribution of ^124I radioactivity; conditions: 120 min pi of ^124I-p5; n = 3; more in AA mice
[6] = test system: AA amyloid deposits; conditions: ^125I-p5; 72 h pi; AA mice; microautoradiography
[7] = dynamic PET 2 h, double exponential fit
[8] = dynamic PET 2 h, single exponential fit
[9] = AA mice, ^124I-p5 IV, dynamic PET 2 h, double exponential fit
[10] = AA mice, ^124I-p5 IV, dynamic PET 2 h, single exponential fit
[11] = higher in AA mice, biexponential decay, dynamic PET

## C[C@H](NC(=O)[C@H](CCC(N)=O)NC(=O)[C@H](C)NC(=O)[C@H](CCCCN)NC(=O)[C@H](CCC(N)=O)NC(=O)[C@H](C)NC(=O)[C@H](CCCCN)NC(=O)[C@H](CCC(N)=O)NC(=O)[C@H](C)NC(=O)[C@H](CCC(N)=O)NC(=O)[C@H](CCCCN)NC(=O)[C@H](C)NC(=O)[C@H](CCC(N)=O)NC(=O)[C@H](CCCCN)NC(=O)[C@H](C)NC(=O)[C@H](CCC(N)=O)NC(=O)[C@H](C)NC(=O)[C@H](CCCCN)NC(=O)[C@H](CCC(N)=O)NC(=O)[C@H](C)NC(=O)[C@H](CCCCN)NC(=O)[C@H](CO)NC(=O)[C@H](Cc1ccc(O)cc1)NC(=O)CNC(=O)CNC(=O)CN)C(=O)N[C@@H](CCCCN)C(=O)N[C@@H](CCC(N)=O)C(=O)N[C@@H](C)C(=O)N[C@@H](CCCCN)C(=O)N[C@@H](CCC(N)=O)C(=O)O [p5] (H-GGGYSKAQKAQAKQAKQAQKAQKAQAKQAKQ-OH)
[1]; mice
  Time the peptide remains bound to amyloid in vivo: at least 3 days
[1]; mice, pi
  Time the peptide remains stably bound to amyloid deposits and radioactive: at least 72 h

## ^124I-p5: peptide p5 radiolabeled with ^124I on Tyr using Iodogen, for PET imaging (H-GGGY(124I)SKAQKAQAKQAKQAQKAQKAQAKQAKQ-OH)
[2]; dynamic PET
  Lag time (tlag) before accumulation of radioactivity in stomach: ~ 8 min
  Time of peak activity in the kidneys (tmax): ~ 7 min
[2]; [7]
  T1/2 fast, liver: 0.70 min
  T1/2 slow, blood: 37.99 min
  T1/2 slow, liver: 20.82 min
[2]; dynamic PET 2 h, single exponential decay after peak
  Kfast, kidney: 0.06 min⁻¹ and 0.06 ± 0.001 min⁻¹
[2]; [8]
  T1/2 fast, kidney: 10.96 min
  T1/2 fast, spleen: 11.19 min
  T1/2 fast, thyroid: 20.67 min
[3]; AA mice, ^124I-p5 IV, dynamic PET
  Lag time (tlag) before accumulation of radioactivity in stomach: ~ 8 min
[3]; AA mice, ^124I-p5 IV, dynamic PET 2 h, double exponential association
  Kslow, liver: 0.17 ± 0.01 min⁻¹
[3]; [9]
  Kslow, blood (heart ROI): 0.49 ± 0.04 min⁻¹
  T1/2 fast, blood: 0.49 min
  T1/2 fast, liver: 0.31 min
[3]; AA mice, ^124I-p5 IV, dynamic PET 2 h, single exponential association
  Kfast, spleen: 0.04 ± 0.00 min⁻¹
[3]; [10]
  Kfast, kidney: 0.04 min⁻¹ and 0.04 ± 0.003 min⁻¹
  T1/2 fast, kidney: 16.62 min
  T1/2 fast, spleen: 15.62 min
[3]; [11]
  Blood pool Kfast (α component), AA mice relative to WT mice: > 2 fold
  Blood pool Kslow (β), AA mice relative to WT mice: > 2 fold
[4]; WT and AA not distinguished
  Lag time (tlag) of thyroid radioactivity: ~ 8 min
[4]; by 5 min pi
  Radioactivity removed from the blood pool: ~ 90%
[5]
  Radioactivity (%ID/g) in liver, pancreas and spleen, AA mice compared to WT mice: ~ 10 fold

## ^125I-p5: peptide p5 radioiodinated with ^125I using chloramine T, for SPECT imaging (H-GGGY(125I)SKAQKAQAKQAKQAQKAQKAQAKQAKQ-OH)
[6]
  Reactivity with healthy tissues: No significant reactivity
[1]; AA mice, ^125I-p5, 72 h pi, SPECT
  Loss of radioactivity from major amyloid organs (liver, spleen and pancreas): essentially no loss of radioactivity
[1]; AA mice, ~5 μg ^125I-p5 (~150 μCi) IV, SPECT/CT at 2, 24, 48, 72 h pi
  Time of retention in the liver and spleen: more than 72 h
